B1: Fission-yeast Pds5 (natural protein, fission yeast, UniProt Q9HFF5 1-1205, looked up)
chain: MIKLQFQRNIVPTHDNPLTTSEILKRLRDLLGELTSLSQDTIDRDSVLPVARSLVNNNLLHHKDKGIRSYTLCCIVELLRLCAPDAPFTLSQLEDIFQVILKILSGLMNQESTYYPQIYEILESLSNVKSAVLIVDLPNAEEFLVNIFRLFFDLARKGTTKNVEFYMLDIINQLINEINTIPAAALNILFAQLISGKGVRQTIGSSDSTNHGPAFQLARNIFHDSADRLQRYVCQYFSDIIFDSRDSLSDSMTTPEFIFSHNLVLQLWKYAPTTLLNIIPQFENELQAEQTSVRLVAIETVGLMLQDNAIWSDYPRVWSAFCGRLNDKSVACRIKCIEVASNALQNSLATSEIIENVVQMLQSKLADTDEKVRVATLKTIEQLTFETFKMQFSVQALKLMGDRLRDRKLNVRLQAIRTLSQIYNRAYQDLIDGVEYSIQMFSWIPSSLLEVFYVNDETTNAAVEICMAELVLQYLSSDTQTRLNRLFLSIKYFSEKAMRVFILLLQRQVKYSELLNYYIECCKNYNGGVMDNDEESITNKLKKVIDIISSKSSNPTLTEATFRKFAELNDRQSYKMLLQTFSIKSEYQVVLKSIKYLFKRVSETLSTASLECFRIFVYRSALFAFNKSNVHEIIQLLNEPVKYHNFLKPSEALLQHLPLIHPNIYGEVVIEVENIIVSSGIESDPKVIKALSQFSKRKKNFSIQTTTAEILRKLCLHGTQEQAKQAATIIAITETKEFKLDMITNIVENLEYNGGLPVRLMTLGQLFLYTLEEVEKVADQVTEFLVKKVIQRFPEKYDDTHNDEEWCTYEKLDNLTMCKVLAIRVLVNRLRAAAGGTEALNIGAPIIKLLKVLLMADGELSPFKNTPKISRAYLRLTASKYFLKLCSIPFYAEHIDFSSYVQISLLCQDENFDVRNLFLTKLQKQLQLKKLPISYYPLLFLTAVDPEEEIKTKASIWIRSQVAFFQKTHDFTMEYVATYLIHLLSHHPDISSIESENSLDFIAYIRFYVDTVVNSENVPIVFHLMQRIKQSYDVIEDGNNYIYVLSDMAQKILQVKSQNFGWSLTTYPKQIKLPYEILRPIPSIDEKKRIFNKIFITPKMESQIEHAIRTPVSSFAKQTTNKHANLKQKKTHSSKSDKKSSRRRKNEKRRKLNEQNPNIRNVPERSSSRFQGIRINYSEAPSSSEEISEEEEEISEEDFDEIEDL
notes: Pds5, cohesin subunit of fission yeast; Protein A was removed by protease; source: overexpressed in budding yeast, purified (IgG-agarose, Capto Q, gel filtration)

How the values were obtained:
Details in all cases: both partners purified
[1] = target: T1, Fission-yeast cohesin trimer (Psm1, Psm3 and Rad21) (fission yeast, UniProt O94383 1-1228; O42649 1-1194; P30776 1-628); assay: co-IP; recombinant cohesin tetramer or trimer immunoprecipitated via Rad21-HA with Pds5 and Wapl both added; bound proteins by western blotting
T1 construct: Psm1 (Smc1), SMC subunit of fission-yeast cohesin; Psm3 (Smc3), SMC subunit of fission-yeast cohesin; Rad21, kleisin subunit of fission-yeast cohesin; Lacks Psc3; source: recombinant, purified (Murayama and Uhlmann, 2014); copies: + +

[2] = target: T2, Fission-yeast cohesin tetramer (Psm1, Psm3, Rad21 and Psc3) (fission yeast, UniProt O94383 1-1228; O42649 1-1194; P30776 1-628; O13816 1-962); assay: as above
T2 construct: Psm1 (Smc1), SMC subunit of fission-yeast cohesin; Psm3 (Smc3), SMC subunit of fission-yeast cohesin; Rad21, kleisin subunit of fission-yeast cohesin; Psc3 (Scc3), subunit of fission-yeast cohesin; also called "4"; source: recombinant, purified as described (Murayama and Uhlmann, 2014); not shown: Pk, C-terminal, kept; copies: + + +

Fission-yeast Pds5 = target: B1; assay: SEC; purified Pds5 and Wapl mixed in equimolar amounts and analysed by gel filtration; fractions by SDS-PAGE and silver staining
Mis4-Ssl3 cohesin loader = target: T3, Mis4-Ssl3 cohesin loader (fission yeast, UniProt Q09725 1-1587; O94459 1-559); assay: co-IP; Psc3 immunoprecipitated; co-precipitation of the Psm1-Psm3 hinge and of the cohesin loader analysed
T3 construct: Mis4, subunit of the fission-yeast cohesin loader; Ssl3, subunit of the fission-yeast cohesin loader; also called MS; source: prepared and purified as described (Murayama and Uhlmann, 2014)

T2 sequence (O94383 whole entry, chain 1 of 3): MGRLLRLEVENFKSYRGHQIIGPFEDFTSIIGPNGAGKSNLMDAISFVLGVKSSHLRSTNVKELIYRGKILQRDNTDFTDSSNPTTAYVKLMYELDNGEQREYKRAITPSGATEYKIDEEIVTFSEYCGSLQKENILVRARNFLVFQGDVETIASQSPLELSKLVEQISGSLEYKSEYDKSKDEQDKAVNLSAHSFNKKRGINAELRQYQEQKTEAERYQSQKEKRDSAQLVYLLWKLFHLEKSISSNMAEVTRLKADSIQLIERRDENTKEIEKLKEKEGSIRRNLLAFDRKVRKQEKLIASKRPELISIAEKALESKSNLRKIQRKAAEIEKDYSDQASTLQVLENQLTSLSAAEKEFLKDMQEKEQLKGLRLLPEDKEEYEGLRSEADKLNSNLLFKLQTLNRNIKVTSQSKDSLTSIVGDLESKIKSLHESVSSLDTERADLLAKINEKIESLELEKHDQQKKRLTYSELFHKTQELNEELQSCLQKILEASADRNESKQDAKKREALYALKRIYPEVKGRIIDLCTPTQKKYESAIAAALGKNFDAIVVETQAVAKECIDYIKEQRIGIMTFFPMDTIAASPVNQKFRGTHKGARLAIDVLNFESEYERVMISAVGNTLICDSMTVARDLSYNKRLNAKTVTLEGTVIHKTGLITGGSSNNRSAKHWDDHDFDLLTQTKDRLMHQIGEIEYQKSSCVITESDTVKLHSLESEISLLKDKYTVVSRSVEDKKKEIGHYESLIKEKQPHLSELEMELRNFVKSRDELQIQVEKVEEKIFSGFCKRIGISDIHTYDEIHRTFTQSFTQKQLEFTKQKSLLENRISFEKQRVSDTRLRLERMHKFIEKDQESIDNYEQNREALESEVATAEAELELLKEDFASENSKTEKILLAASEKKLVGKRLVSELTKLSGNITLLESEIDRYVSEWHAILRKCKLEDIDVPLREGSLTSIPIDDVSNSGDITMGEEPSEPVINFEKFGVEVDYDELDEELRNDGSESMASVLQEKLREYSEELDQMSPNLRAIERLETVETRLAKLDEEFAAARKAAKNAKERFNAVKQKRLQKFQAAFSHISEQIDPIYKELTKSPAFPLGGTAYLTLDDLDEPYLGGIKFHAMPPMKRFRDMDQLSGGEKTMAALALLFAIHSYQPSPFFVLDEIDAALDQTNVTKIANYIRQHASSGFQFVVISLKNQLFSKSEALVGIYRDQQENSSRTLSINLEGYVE
T2 sequence (O42649 whole entry, chain 2 of 3): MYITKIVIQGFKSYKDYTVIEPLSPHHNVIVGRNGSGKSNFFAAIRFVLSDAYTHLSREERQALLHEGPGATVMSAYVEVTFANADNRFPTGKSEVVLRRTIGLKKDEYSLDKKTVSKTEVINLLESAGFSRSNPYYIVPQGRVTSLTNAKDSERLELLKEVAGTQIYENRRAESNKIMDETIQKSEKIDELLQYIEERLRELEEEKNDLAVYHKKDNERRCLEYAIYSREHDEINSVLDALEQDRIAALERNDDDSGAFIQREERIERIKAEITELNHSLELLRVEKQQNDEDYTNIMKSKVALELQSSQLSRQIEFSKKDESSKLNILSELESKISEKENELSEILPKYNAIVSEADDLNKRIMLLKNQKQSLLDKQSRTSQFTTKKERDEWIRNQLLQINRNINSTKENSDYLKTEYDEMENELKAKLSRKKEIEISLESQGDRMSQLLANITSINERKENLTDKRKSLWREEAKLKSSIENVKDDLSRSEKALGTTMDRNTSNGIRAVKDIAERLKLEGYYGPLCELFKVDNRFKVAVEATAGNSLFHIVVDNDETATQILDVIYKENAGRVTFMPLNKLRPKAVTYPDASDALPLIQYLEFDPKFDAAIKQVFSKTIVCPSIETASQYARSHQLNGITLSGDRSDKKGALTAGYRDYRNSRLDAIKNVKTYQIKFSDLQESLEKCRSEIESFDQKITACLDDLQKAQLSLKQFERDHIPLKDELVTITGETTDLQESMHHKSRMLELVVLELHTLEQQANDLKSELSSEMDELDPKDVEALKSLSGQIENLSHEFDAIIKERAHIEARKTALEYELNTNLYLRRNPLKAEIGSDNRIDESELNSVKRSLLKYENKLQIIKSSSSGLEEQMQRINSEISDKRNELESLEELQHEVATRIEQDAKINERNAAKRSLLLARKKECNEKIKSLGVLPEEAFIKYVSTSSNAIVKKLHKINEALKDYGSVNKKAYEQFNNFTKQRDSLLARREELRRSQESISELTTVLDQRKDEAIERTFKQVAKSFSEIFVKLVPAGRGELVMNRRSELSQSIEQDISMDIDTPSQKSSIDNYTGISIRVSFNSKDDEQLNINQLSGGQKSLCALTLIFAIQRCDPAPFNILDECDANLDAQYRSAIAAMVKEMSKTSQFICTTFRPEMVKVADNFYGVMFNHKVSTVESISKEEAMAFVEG
T2 sequence (P30776 whole entry, chain 3 of 3): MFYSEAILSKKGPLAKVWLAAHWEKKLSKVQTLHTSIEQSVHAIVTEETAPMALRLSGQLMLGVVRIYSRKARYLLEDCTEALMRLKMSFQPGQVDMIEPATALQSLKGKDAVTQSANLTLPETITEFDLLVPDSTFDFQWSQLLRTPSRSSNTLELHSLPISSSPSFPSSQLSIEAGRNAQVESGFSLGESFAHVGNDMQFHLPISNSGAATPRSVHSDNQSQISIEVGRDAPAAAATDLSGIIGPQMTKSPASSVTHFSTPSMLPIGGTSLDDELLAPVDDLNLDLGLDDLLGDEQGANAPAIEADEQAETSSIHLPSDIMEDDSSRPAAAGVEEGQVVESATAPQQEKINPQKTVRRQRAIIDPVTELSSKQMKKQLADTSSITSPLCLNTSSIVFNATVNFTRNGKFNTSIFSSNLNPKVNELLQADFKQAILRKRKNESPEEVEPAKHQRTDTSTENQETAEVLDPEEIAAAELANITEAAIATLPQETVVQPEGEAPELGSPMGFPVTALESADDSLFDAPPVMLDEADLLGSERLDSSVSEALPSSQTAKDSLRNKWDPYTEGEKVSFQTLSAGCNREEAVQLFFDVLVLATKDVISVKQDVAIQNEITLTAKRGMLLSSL
T1 sequence (O94383 whole entry, chain 1 of 3): as the sequence (O94383 whole entry, chain 1 of 3) above
T1 sequence (O42649 whole entry, chain 2 of 3): as the sequence (O42649 whole entry, chain 2 of 3) above
T1 sequence (P30776 whole entry, chain 3 of 3): as the sequence (P30776 whole entry, chain 3 of 3) above

| binding result [1] | binding result [2] | binding result (Fission-yeast Pds5) | binding result (Mis4-Ssl3 cohesin loader) | Binder |
| --- | --- | --- | --- | --- |
| binds | binds |  |  | B1 |
| binds | binds | binds |  | Fission-yeast Wapl (natural protein, fission yeast, UniProt O94364 1-602, looked up, Wapl, cohesin subunit of fission yeast; GST was removed by protease; source: E. coli, purified (glutathione sepharose, heparin chromatography)) MKRGKCKEKDNGLKRISSESEVWNFLDVTVSELNKQKRSPGQTVSKRLHKKQRVVSNPDLSLPSSPVKQILRNGLQNSKYGSHKTGLERSASCSSIDASANHSSTTYREQRSYLMEEGLDTQPIVPREVSSGRELDSTNHTIGTERAFLIEEDVSEDDEIQMKSIHELRFAGEQQRIVDEIEYLVDGVTFSGNSSASRYLSLIGIAEKMFDNSFRLCLKSIRDVFLRIFEEIDPKDTLHTFLQIYIFATMANEMDCMSSLLDAYSNNVKLLLQTAITLEPQVPVSILAKSLPKSVKGAVQEFVIKAELTFSFSNESLASSDSISLAAIALMKTSSGVFAESELFTELINLLIEKSYPILKENDGSNNFLLHALCSSLEKFTDFQGSEKIQKVSQILSSKLQILIDEHNETNSPKIDDTVVHACSEKLLRTLIQTVNSNSDHALAVSKSEVPLFAYKILQKFSNFSSDDETTRELIILILGLLLGLVEESHEFIQTITHVEVSFGASALDVLISFYQKNESIVEISGYVVMILSHCFLNDPKAFAQLKPLISQFYESLHKFKNFHLKLKEELMMMGSNGLAIVSIIDELHKSLQDYLRSDLVK |
|  |  |  | binds | Fission-yeast Psc3 (natural protein, fission yeast, UniProt O13816 1-962, looked up, Psc3 (Scc3), subunit of fission-yeast cohesin, as a separate protein; source: prepared and purified as described (Murayama and Uhlmann, 2014)) MSESVTTGSDDDGGDRESSPVMLSQSFDPMSSSSNSSSEENSDDDYEKTISSKKRHPRPNSKGVNVKRSRRNAIVEEDPQEEIFNNLFAFLLDQKVDTMDIAVSWFADYAKDNQSALANLINFILKCCGCNRAINVFDVQDQDSASATLSQIQLSVERTSTRDYPLNSKNLKFRNFRKRLTGLLSNFVSQLSIRNYLYNSTVFEDIMSWVVAMSSSTMRPIRHTATVFCLNIMTFLCEKSKELLNEHAIATKQLEKEEKRSRVNRNRINELNNSLGEIVKQQDTLTTYLNDYFDSVFVHRYRDVEPKIRVDCLQELGVWINTVPSIFFSGSYLRYLGWMLSDINTTVRLTVVKVLRKFFETDSFIGGLRHFSSRFKERILEMSCVDADIGVRVASIRLCNAMRTCGFLENSEILKVLKLILDINPRVQREAVLFLCKVVDESVNEKIDLWGEEDYILKAFSQTSLTTFSVHWIKFSQMCKLLEEVRLSYQSSFDYDTLLRIFQKNGNFITPITQALLNACEIDSIYQSWEDISNFVLFDNYTSTLKDPIDSILSFCKLNDFQESILLQLLSASIQTVCNNNFITPKTVHNKQAAETTNDQNKDKDLLYLNLLPYINSITERNSASPTLLHDSLRLLFSMDLTEMTDPQLSRHFELLINNLKKFFLTNNDLQIIQGCTILFLRLDSIPALKEDLKLLVTDICDQTVTEFLKNFGSFNIQDAVITKDEFVIFEACLTRIEGCTSLKDFSDYPEFDIIYERLVSLLSRVPNSYEDTLKFSAINTLQSLLFWFFLRKDNPADEEKKKDDETKVFNCLINIMNNDSSKILQLQAARTFLETVIMKEGVKASHYNDDNRVSEEHNFLKPQFLDALLKILEGWLYTYAKVGQFPFKRLTQASSPHTQISLDKNPLNRRLLEHVCCDLTSKLLIVVSLSNTITPEFSQQFCELRGHYGPKLSAIVDEFLN |
